Experimental data reported in article PMC5478280.

Assays:
[1] = biological target: Csy complex with Cas7f K85A (P. aeruginosa (strain PA14)) (UniProt Q02ML9); test: SPR
[2] = biological target: Csy complex (type I-F crRNA-guided surveillance complex), wild type (P. aeruginosa (strain PA14)) (UniProt Q02ML9); test: cryo-EM structure

anti-CRISPR protein AcrF1 (natural protein)
kd1 (dissociation rate) [1]: 0.00031 s⁻¹
stoichiometry N [2]: 2

anti-CRISPR protein AcrF2 (natural protein)
stoichiometry N [2]: 1
